Test results as given in the NTF2 design screens of Basanta et al. (2020).

Test: protease stability score; higher = more stable; yeast display proteolysis, trypsin and chymotrypsin;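 note: relative to predicted unfolded state with 0 unfolded-like and 1 meaning tenfold more protease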
Sequence “SEHLEIAMRVIREDLIKSSTGDWRRLEDYLDPHVKIQVGNKEIVGWEEVEKNMEHLRIEFRDYRIKDARNIDGKINVHGEIVEIIRVGNKTYQMRTEVDFIATKVDGQWTIHSIRFN” has a protease stability score of 1.15. “DDEEDKAREAFKMLQELVNTGNEELLYQYFDPNYRLDVDGRQIHGREAVVNERRKRFEMWGVEQVRLHIDTWDIIGNKVKLDGHLNFNGVIKKTHIHLLKVNGRWVIESERIE” showed a protease stability score of 1.08. “SEEEKELKTLVEELWHAWETGDEDFIHKYMDPHARLHIGDKDHHGREEIRESLRQHREHLRIEHVHRHHVKLVDGRIETHGHILGHIGDKRFETEMIIIIIVINGRIRSMKFDYR” gave a protease stability score of 1.03. “DKEFEDVIRMAEHEMKLMETGDWKTHEHLADPNYRVDINGREHIGWDHFVRWLFHMRIHRIEIKEVRVQGEKATLRLKVDGEQGDKRFKTDIEFSLLIVDGRIKEIHIILH” gave a protease stability score of 1.36. “SEIDKESEEVARRLLHMEYTGDEEKMIKLLDPHVRLDINGQLFVGREEAERALRQYWHRVDHIHSIEIHDYKTQGDWFHLDIRVDGEIDGQRRDFRVIVHTRIVNGKVKEMHLKFH” gave a protease stability score of 1.65. For “DEDKEEAMKFLRLWFHSVLTGDEDELTRLLDPNTRIVIDGRTFVGREEMVFVMREMRVHHFHIKDVHLVNGVAHIDTHSDIEFNGRRYRTDTEISVLKVDGKWILKSVKIR”, the protease stability score was 2.42. “DEQTELEDKMRELIMRTWDTGDEKLLQELADPDARAHFNINGQTDSRHGREEILRLFIKLWEILGVDHLHLQHVSVIDGKFHIHQEVRYDGKVTFLHIHVWIVNGRNRQFNVHIEHR” gave a protease stability score of 0.407. For “DEHKREMRILLQLWREFWLTGDWRNILKNADPDYRLTVNGRDFVGMELATEFLEIILRHLRVKHIILRHEELVDGVLHVEGEIDGNIDGKETIHENEINMFVYNGKIHEVELHLK”, the protease stability score was 1.36. For “SEEREEFEHWAKLVVHLLLTGNWEDFVKLLDPDTRFRDEDEETVGREEVEKAVNRLLDRVDHIKSVHIRHLDVINGRAFMHGQLVGHVDGRETHTEVRIKLVVVNGRIKSLQIDYK”, the protease stability score was 1.99. “SEEEKMVEYAIRLIDSLIRTGDERVLMSLLDPHAKMDVNGKDLIGREFLKHWTHQYKNVKLRDIKVKDAEVQGDKIRIHVELEIEFNGRRDSRDETWYIDKFDGRWLVEEIRVK” showed a protease stability score of 1.15. “SEEERFVEEMLRHFLTNFLTGDWDKVAKLADPDTRSLIGDKHSHGRERVIDVLTYVVEEWRWKEFRVHRTTSIGEKAHSDTETDGNYNGVDVRSRSYIHFEVVNGRMSQIHLIFV” showed a protease stability score of 0.694. In the case of “RKEEEDLHKLLEHLSENYWTGNEEMFNHLADPHTRFEIRIGEFTIEDHGRERIKELVEWLLRFLGANHSHLTSIRVVGDKFHVNSLIHVDGREHTLHIIFVFINGRLTHYSMEVR”, the protease stability score is reported as 1.35. “EEWRDHVHHLLELMLHLWRTGDEEIFHRLLDPDTLVRVNGVEFHGRDAMHHVLHRLIEELGINHYRESDFDIQGNKAFHHGELRVNGKTVLEEQRYVIFNGKIKEIRITLH” showed a protease stability score of 0.271. Sequence “SEKERLVLEIYWKIIHSRNTGDEDHWEELADPDMKLTINGVEFHGREATSKFFKEHVKRFGWEFHIHVDRINAFDGRVESHVIIHIQVGDKHIEIEMREEYVVINGVLKEIRILDR” has a protease stability score of 2.1. “DEQEESTRIAMELVLRSLKTGDERTVSELVDPNVRYEQGDKEYHGWESASEVVRRLGVDHFIIHDIKIQGNKLHLHGELVVGDYTLKYHIIVLKVNGRWQITRMHTI” gave a protease stability score of 1.2. With “NEEEQEILEDVEEHIRAEYTGDEEVLDNLADPNTRIHYGEKELHGREEWLQLVHDEHNRFKGMKIEVIIRHIDIYDGRVRSEGELHIHVGDKEYHVDVQMILTKVNGRWLLTRIHFH” the protease stability score was 0.093. “SEEEELTQELFERFHHVLRTGDWREMVHLADPNARNIFENRTIVGREDVSKILSELLQRVKGIRWHIESIHVQGDFLKLDYRMQVGDKSENVEIHYLKFNGKWILKSIRFE” gave a protease stability score of 1.32. “DEEEDDVRRLIERFQHNFDTGNWHMLEHLVDPHARINFDGVESHGMELIVHVNEHMRIHDTHIRDIRIDVVGDKVFVENIVRVESEINGQHRDVEMRISMVITKVNGRWLIKEIRIKIH” gave a protease stability score of 0.974. “SEDEEEWHEATHLLVESLKTGDWKDLSRLADPNAKLHVGEKTVIGRELVSKHLKNRMTELGINHIHIEDRESQGDKIFIISHIHVNGREMKSIFIILKIDGRWILHSMEIREH” gave a protease stability score of 0.327. For “TEEEQLLKEFAELYLRNWWTGNEDKLLELADPHARSVVNGREIHGRENMYKLIRLWLERFKNIQIHYDDVKFQGNYVKLHGHMTVGDKTTHIIIHILVIDGVIKELSLEVN”, the protease stability score was 1.56. In the case of “SEDHEDMDRMFDLLIKLLYTGDEESLEELFDPNTRIDVGDKVLHGRELAVKHVKDRLRRADHIEFHIKDRRAIDGRLEIDMELRIHVDGKDIIIRTKVHLEKVNGRWLIHHIKVH”, the protease stability score is reported as 1.38. With “SEDDRENHRFMEQFLHDWETGDEDSLRKLADPDVKVRINGVDLHGWSFFEDYLRRVDHIDDFKIDHVEIQGDKIKIHGQQHGRIDGRRDTYKVQNFFIKIDGKWRLKMVINR” the protease stability score was 1.34. In the case of “DEEERDSRIALEIWLHNVRTGDEKSERDNLDPHVRYIVDGRDYIGREDFLHMMSQIRIEEIRIKRFSSYNGRIHMDVHSRVTYNGVDRDIDENLHSTKYDGRWSIHYIEFR”, the protease stability score is reported as 1.01. Work on “SEWEEFMERMLELVIEVMKTGDFDRFRSLFDPHVKIRIIIGDKHHEFHGWLWLRTLIEKMGIDHLQINVRSYRIIGDKLEVDGELLSHYNGRTSHRTVHYHIVIINGRLHHITIEYH” yielded a protease stability score of 0.214. In the case of “SEDEEAIERFLREFVKAERTGDEKTILSLMDPHVRIHQGDWEVHGRDDLRHFFHRIDHVRSRFHLTHVDHQGDKAIFKGTVEYHIHVDGKDIHSTSSVDIHVRKINGRWLMHNVHIE”, the protease stability score is reported as 1.63. Work on “SEEEELTRITEQLMIEHLRTGDWDELQHLLDPDARLHFNGREFIGREIVIKLKLEKLRDLGMTFRDFHIKSWDSQGDKIHLRVREEVEFNGKNIELDVEIIARKVDGKWFIEQIKVR” yielded a protease stability score of 1.1. “DELDRRAKKMLRIWLEERFTGDEETVSKLADPDTRTQIHVGDKDLVSIGMESVSEFLRRMIHHWRIEHVKVKDTKVFDGVAHLHGEIHGNIDGQRVDVRLEVRVVVINGRIHSMSEEFT” showed a protease stability score of 1.61. “DLDQELREKTIRIELKAWRTGDEDKIKELLDPNTRFIINGRHLIGREAIHILLEQIDHFKDLQPRHVDVINGVVRFDGHMEGTFNGVDQSTKVHIIAWKYNGRWFIESIIII” gave a protease stability score of 1.59. Work on “DEDWHKLEETMRRFAKAMLTGDEDDLRKLADPDYRLDVNGRDLHGMESVKHWLDELRLVINDVKVREVHVIDGRLYLDTQVHSIETINGVEIRFVTETHVVIRKIDGKWINREMSIK” yielded a protease stability score of 0.285. “DEEEKVEDDMLHRWLQYFLTGDEEHLLELADPRVRVRINGKDDHGMNAVERFWEEYRRKFKNVRIHIHDMRYYDGVIHVDGILQINGKTLKIEFIIVIVNGRIRFITENIR” showed a protease stability score of 1.73. For “SEDEENIRRIIRRFVHTFETGDEDIMRELADPHVRLIFNGQHYIGREWVVEIMSEHVKRADHTEVHIHEIHIIGDKVKVHSRLHINVDGVFRNIELRIDIMKVNGRWLIHHVEFR”, the protease stability score was 1.48. “DETEEMARLFNEEVRHSWKTGNEEHIKRLIDPHAKVHIGDKELHGRERATETIRKLGVKHLEIDDIHIIDGRVHVDGTLDVDGQSFRVEIILSKVNGRWLNEEIRIH” gave a protease stability score of -0.344. “DEDDKKAEDFANVIAHNLMTGDEEKHNKMIDPNVKIFINGQTVHGRDEFSKVMRRYKNLRIDWEVEELEIVNGQVRLKGHLHVEVNGVETRIDTHIVVTKVNGRWHMKEIYYH” showed a protease stability score of 1.62. Work on “DETREIAIKMIELWIHAVKTGDEDRMTELLDPNALLIIGDKKIHGRENLLRFWKRIDHHHLRHIEIKEITFFNGQVEDDGIVEEELRVNGREFEIDSRVLYILKKVDGRWIMRTIEVK” yielded a protease stability score of 1.88. For “SEEEEIIESFMKELRESHKTGDPTAIDRLADPNTRLLVNGKQHHGWEHILRFLEDLGANHIELEFRDSHLIGDKMHIHGQLVMHINGQRVTIKTHMILSKINGRWYLEHIELR”, the protease stability score was 1.81. “DEDRKHREHLSELFQKLWLTGDWRTLWRLLDPHVRLEVLIDGKRIEKIGRENISEMLHRFLEFLGVDHRELHDMEIQGDKVHLDERIHYNGREQKLHIEFKFINGRMHEIKIRYE” gave a protease stability score of 1.58. Sequence “TEEEELSRKAAEILDEAQQTGDEDSIRELVDPNVKYEINGRIFVGWQEMLHAFRLELRHIRLREVHIKREKRIGNWMFIDSSMDGEVNGVRTERKSELVFLKFDGQWSLHSMRIE” has a protease stability score of 1.56. With “DEEEKMHTKAVELTETILKTGDERIIKEMADPNTRVIFDGVDLHGMEHWTEFWRRLGFKHIEIRTTEVVDGRVIIIQHVRYNGKKHESHVYADKIDGRWLYTHVEIR” the protease stability score was 0.618. “DERTEHNRQLAEEITRALLTGDWHEIEKQADPHVKFRQGEFSYVGREDLVRFWEEFIKKIKNITLRIREIRVIGDKVHIHNDLKIGDKETHVHIILVLIDGRLHHLEIRIE” gave a protease stability score of 1.45. With “TEEDELYRLLREHLKHVIETGDEELTQKNLDPHVKVELQIGDKKFTLHGRDQFTQWWKELHEKVKNIRFEDRHVQFFDGVAVVHVEINVNGRHIELIVIAEKVNGQWRIKHVEIRFL” the protease stability score was 1.53. Work on “DERDEYLHEWTRLLIELFETGNFEFLVEMMDPNVQIDIGDKHFIGWELAVHFLEEFLRQFKNARWEITRFRRYDGRIEMDTIMRINGREIKVKIIVIVIDGRVKSRHEEYR” yielded a protease stability score of 0.595. Work on “DEDTARKQVQIYKDNDPNQLVRMFDENARLKVGDQTVDGREELERWVKRLRTRVDRYSYKNVDIQGERVVIDMVMVVDGKQVEFVVEFVVEDGRIKNAKVQARNKDEETKLQEAIG” yielded a protease stability score of 1.37. With “HEEDEMAIKIVELFIHALHTGNEELLHNLLDPEVRLTVDGRRIHGRHWVLRELLHIRVHDIHWTDIDKVNGKIELHTRQDGDVDGRRHEVNVTLVVIKVDGQWILHSVMVE” the protease stability score was 2.09. With “DETTELTQTVSQVFLDIWRTGDEDALRHLADPNTRLEVGEKTFHGRERVTEYVSRFKNVTVHLRRVTVQGNKVHIDSEMDFNGRKSDLHVELLVVDGRLKEIHVDIRWL” the protease stability score was 1.84. In the case of “DHEHRELRELIHRIEKNIRTGNWDVVEKMLDPHARIDIDGKEIHGRDRLVEEMVKQWEKMGVDHIEIKLEDYKVSENEVYLDMIFVIRVGDKVIFIDSHIISRKIDGRWIIHSIHFR”, the protease stability score is reported as 1.95. In the case of “SEDDEEVRIALDIQRELFRTGDWRSIEEFLDPNVRVHVGDKEIHGMEELLRYYTHIMNHLGAKHWHVTEYTSIGDFVHIDGEFIQGDKTFHLKIHLLKFNGRWIIHSRIID”, the protease stability score is reported as 1.22. Sequence “HERERMLEVALRLFIETMRTGDEKITSELADPNVKIHIGDKTDHGRESFTNFFEEMGADHVNVHDVEVQGDKVKTDIRIQIGDKMVESILYVKKVNGRWLIRSIEIR” has a protease stability score of 1.05. For “SEEEEMIEKLIRLLVKAHETGDWDTEHELMDPHVRIDINGKEIIGREDWHEHVKRMGFKHSRVEIRIRHLTTQGEKIHIHGELRVIYDIDGRTIDRSTEVHYHLRKINGKWLITEIEIR”, the protease stability score was 1.69. With “DEDTHMVERALTLLYKTLHTGDEDLYRELIDPHVRVEINGQELIGRELLIEWFREMVERFPNIRIEIHDIRLFDGRLESDSRLHYGDKSREVHLIARKVNGQWRLESLKVE” the protease stability score was 1.41. Sequence “DELFKNMHTMAEIFLKLLLTGDEDLIRHYADPNVRLEWIFNGVRFEHVGRESFMEFLHRWLEELRLHDLIVHEVRFQGDKYHMDTRERVRVDGVELDRKTEQMYVVVDGRLHSVHRIIN” has a protease stability score of 0.678.
